{
  "source": "paper PMC8262983",
  "binders": {"B1": {"name": "recombinant 6×His-HSP40 (natural protein)", "chain": "MFFSSGFPFDSMGGQQARRKREVNNNKFYEVLNLKKNCTTDEVKKAYRKLAIIHHPDKGGDPEKFKEISRAYEVLSDEEKRKLYDEYGEEGLENGEQPADATDLFDFILNAGKGKKKRGEDIVSEVKVTLEQLYNGATKKLAISKDIICTNCEGHGGPKDAKVDCKQCNGRGTKTYMRYHSSVLHQTEVTCNTCRGKGKIFNEKDKCANCKGMCVLKTRKIIEVYIPKGAPNKHKIVFNGEADEKPNVITGNLVVILNEKQHPVFRREGIDLFMNYKISLYESLTGFVAEVTHLDERKILVNCTNSGFIRHGDIREVLDEGMPTYKDPFKKGNLYITFEVEYPMDLIITNENKEVLKILKKQNEVEKKYDLENSELEVVSCSPVDKEYIKVRVTKQQQQQQQEAYDDEDHQPEMEGGRVACAQQ"}},
  "biological_target": "recombinant 6×His-HSP70 (P. falciparum)",
  "data": [
    {"binder": "B1", "values": [
      {"measurement": "ATPase activity of HSP70 (EnzChek phosphate assay; 45 μg HSP70 with 8.9 μg HSP40 against HSP70 alone)", "result": 3, "unit": "fold"}
    ]}
  ]
}
